This note sets out measurements from patent US20230348588A1 (published 2023).

The assay has as its target extracellular domain (ECD) of recombinant human Sortilin with a C-terminal HIS tag (ECD-huSortilin-HIS) (UniProt Q99523 78-755). The assay can be described thus: ELISA. On the technique in general: An ELISA detects its analyte on a solid surface through an enzyme-linked reagent.

Chain of extracellular domain (ECD) of recombinant human Sortilin with a C-terminal HIS tag (ECD-huSortilin-HIS) (Q99523 78-755): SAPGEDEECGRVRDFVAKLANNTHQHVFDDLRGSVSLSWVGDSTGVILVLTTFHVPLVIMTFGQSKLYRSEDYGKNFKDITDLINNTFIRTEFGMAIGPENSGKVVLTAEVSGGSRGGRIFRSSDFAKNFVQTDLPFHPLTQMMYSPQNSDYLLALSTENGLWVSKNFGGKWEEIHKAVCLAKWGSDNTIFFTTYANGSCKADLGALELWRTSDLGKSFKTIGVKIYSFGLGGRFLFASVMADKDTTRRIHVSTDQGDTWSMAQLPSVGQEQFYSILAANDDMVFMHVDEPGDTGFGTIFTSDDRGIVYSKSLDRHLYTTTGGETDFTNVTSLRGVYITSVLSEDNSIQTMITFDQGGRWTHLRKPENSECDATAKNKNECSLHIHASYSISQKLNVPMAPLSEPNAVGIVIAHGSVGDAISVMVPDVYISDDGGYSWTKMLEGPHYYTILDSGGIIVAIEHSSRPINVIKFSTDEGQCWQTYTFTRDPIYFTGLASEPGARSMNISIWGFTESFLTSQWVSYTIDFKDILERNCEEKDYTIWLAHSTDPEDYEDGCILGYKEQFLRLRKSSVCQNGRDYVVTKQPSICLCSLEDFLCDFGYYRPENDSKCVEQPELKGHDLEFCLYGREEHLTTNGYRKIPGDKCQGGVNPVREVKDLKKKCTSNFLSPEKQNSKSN

B1: mouse monoclonal antibody 4N2 (antibody, V domains shown)
VH: EVKLVESGGGLVKPGGSLKLSCGASGFTFSNYVMSWVRQTPERRLEWVATISGGGRYSYYPDSVKGRFTISRDNAKNNLYLQMSSLRSEDTALYYCGRQDDYDSFPYCGQGTLVTVSV
VL: DILLTQSPAILSVSLGERVSFSCRASQSIGTSIHWFQLRTNGSPRLLIKYASEPISGIPSRFSGSGSGTDFTLSINSVESEDIADYFCQQSKSWPITFGTGTKLELK
For the molecule B1, the EC50 is 5.8 nM.

Broadly, the EC50 is the concentration that produces a half-maximal response.
